Here are results for 3 molecules from patent publication US11230704B2, “Oxidation of highly unsaturated fatty acids with novel 8-lipoxygenase derived from Malacostraca” (Bizen Chemical Co., Ltd., priority 2018, dated 2022).

Series [1] deals with peroxisome proliferator-activated receptor (PPAR). To be noted: background statement, Non Patent Literature 1; cited from earlier work.
The nature of series [2]: Measurement of activity of PK LOX2: thawed PK LOX2 expressing Sf9 cell pellets incubated with EPA, LC-QTOFMS. Type of series: biochemical, Sf9 cells. As for the experimental part:
A baculovirus stock expressing PK LOX2 obtained by the same method as PK LOX1 in Example 3 was prepared. Sf9 cells were infected therewith. After washing the Sf9 cells after two days from infection with PBS and centrifuging the cells at 1500 g, the cells were frozen at −80° C. after removing the PBS. 50 μL of 200 mM Tris-HCl (pH of 7.4) supplemented with EPA at a concentration of 50 μM was added to PK LOX2 expressing Sf9 cell pellets thawed on ice, and the pellets were incubated for 4 hours at 27° C. After adding 150 μL of acetonitrile (containing 1% formic acid) to the incubated solution and vortexing the solution, the solution was centrifuged for 10 minutes at 4° C. at 20,000 g. The supernatant was collected and 5 μL thereof was subjected to LC-QTOFMS to analyze 8-HEPE.

Series [3] in a line: Measurement of activity of PK LOX1: EPA added to medium of PK LOX1 expressing Sf9 insect cells, LC-QTOFMS of cell extract. It is filed as cell-based. The protocol:
(§1) A P1 baculovirus stock prepared by cryopreserving a culture supernatant of Sf9 insect cells transduced with bacmid expressing PK LOX1 was added to a medium of Sf9 insect cells and cultured for 1 week. 50 μM of arachidonic acid, eicosapentaenoic acid, or docosahexaenoic acid was added to the medium of baculovirus infected cells, and the cells were centrifuged and collected after 4 hours of culture. After removing the medium from the Sf9 cells and adding acetonitrile to the cells and sonicating the cells, the solution was centrifuged for 10 minutes at 20,000 g, and the supernatant was used as an extract. 5 μL of the extract was subjected to high performance liquid chromatography/mass spectrometry system (LC-QTOFMS: Agilent) to analyze 8-HETE, 8-HEPE, and 10-HDoHE. […] The 8-HETE content after adding an arachidonic acid, 8-HEPE content after adding an eicosapentaenoic acid, and 10-HDoHE content after adding a docosahexaenoic acid are higher in a PK LOX1 expressing Sf9 insect cell extract compared to an extract of EGFP expressing Sf9 insect cells used as a control. It was confirmed that 8-HETE, 8-HEPE, and 10-HDoHE production is induced by PK LOX1 expression (FIG. 6C).

Series [4] in a line: Measurement of activity of PK LOX1: arachidonic acid added to medium of PK LOX1 expressing Sf9 insect cells, LC-QTOFMS of cell extract. It is filed as cell-based. As to conditions: 50 μM, 4 hours; FIG. 6C. As for the experimental part: as §1
Series [5] is described as follows: Measurement of activity of PK LOX1: docosahexaenoic acid added to medium of PK LOX1 expressing Sf9 insect cells, LC-QTOFMS of cell extract. It is filed as cell-based. To be noted: 50 μM, 4 hours; FIG. 6C. The protocol:
as §1

As for `CCC=CCC=CCC=CC=CC(O)CC=CCCCC(=O)O` (centres unmarked) [8-HEPE, 8-hydroxyeicosapentaenoic acid], the “PPAR activating action compared with EPA” value in series [1] is on record as “higher peroxisome proliferator-activated receptor (PPAR) activating action than EPA”.

B1: PK LOX2: lipoxygenase isolated from Euphausia pacifica, 686 amino acids, SEQ ID NO: 4, expressed His-tagged in Sf9 insect cells (protein, listed as Euphausia pacifica)
chain: MVALRCFKPEEMHIFTICGLFLAAMEVSNAYLCNNNFLVTVKTGYGTDAGSNASVILVLEDQNRNEIRNWLSIPKQDETGNHRIPIPTSFGRIVTVELALDYKLAPDWYCEDIFIEDPRLNDRLYFPIDRRIQGNQFYDFQNYATCLPQFDQNSISRRLTLQKKREDYQLSYDRTAAMVKDLPQDEIFHQDYISSIRAIQKTSIDDQIPLLQAWQSSNNISAFFGGDFYMPQSIQFWKEDAWFGAQRVQGIVPNIIELCKQIPDKLGVTEDTISGLLEGSTLQQALKNNKIFISDLELLDGIQYSGVWSDNADHAAPISVFYLNKIDQLMPIAIQLRQQKGPKNPVYTPKDPPNTWLVAKIYYNNAESQFHQILVHFGYTHMIMDGIATSMNRQLSPSHPVFKILKPHFLYLLAINRLGEQELFVPQGVFPYFSIGLDGMNQLLAKAVPQFTLARAIGSVESDARARGVWDKQVLPYYPFRDDAHSMYNIIKKYATKVIYYYYNTPGKIINDMELQRWRTELAKPRAQGGVGIPDLPGSDTAGFRDINEIIDLVTTIITHSSVGHAAVNFPMYDTYGYFPNYPPDLNEGPPLQKMLYTEDEIMSLFPNGSHAFRVRATIRVLSWQGTNDCGDFEKIYLYDPVSQEAQVELRKDLAMFSKEVMNRNSKRFIPYKYLDPNYVPNAISI
modifications: His tag
Take B1: the 8-HEPE production in series [2] (EPA 50 μM, 4 hours at 27° C., FIG. 7) is 8-HEPE production was observed. The “activity compared with specific activity of lipoxygenases known in the art” value in series [2] (PK LOX2 expressing Sf9 cells) is “markedly stronger than the specific activity of lipoxygenases known in the art”. Further, the “specific activity of lipoxygenase (8-HEPE/PK LOX2 expressing Sf9 cell protein)” value in series [2] (printed as 'up to about', EPA 50 μM, 200 mM Tris-HCl pH 7.4, 4 hours at 27° C., FIG. 7) is recorded as “about 3.2 ng/mg”.

B2: PK LOX1: lipoxygenase isolated from Euphausia pacifica, 691 amino acids, SEQ ID NO: 2, expressed His-tagged in Sf9 insect cells (protein, listed as Euphausia pacifica)
chain: MAPIKEKKSFKLTAATGNQDGAGTDANVYVTFEDEEGRRTKEKKLDKLLYNDLEKGKKDKYDINAPVEFGAVKKLHVHRDSTGLGDSWFCDYFEIKDLRFKGNNNEPSPTKKEYYYFPIHRWISSQHRYEFDEYGTCLPQADPCIGPRKADLEAKKSSYNYVYRIGAMAATDTTDACVGHCAQVETLPADEKFSEDYYWNFATDKLKLLAETKWMEWTNQTKWNSLSDLRSVYKKSLGEPKCLDVWREDWWFGLQRLQGVNPVIIELCTQIPDNLAVTDTTVEGLMDDLTLNEALENKKIFICDLKIMDGLCCKENRELAAPLALFYLNKENKLLPIALQLKQEKGDDNPVFTPKDSKNTWLVAKMFYNNSEAQHHQALTHLGYTHLLMEGVVVCTHRNLSPSHPLFKLMAPHFLFLLAINSRGLEKLVSEGGWVDCCMTQGLCGILDLMKRGFEAWTYTKFGSVSAELEARGVLNKDVLPYYPYRDDALPLFAEIRKYVKTIVEHHYDNEDKMKEDWELKSWREELAKQRSENGVGLADIPGSKEDGFNSVDEVVDVVTMIISTCSLGHAASNFQQYEQYGYVPNYPGILMSTLPKEKKEYTEEEIMQILPDKRMTLDIMVITKLLSTKGTQSLGDFEMQYLYDPVGVQAAKDFRKNLDRLSKKNKLENVDRQWDFDWLDPEFVPNAISV
modifications: His tag
For B2, the “8-HEPE content after adding an eicosapentaenoic acid, compared to extract of EGFP expressing Sf9 insect cells (control)” value in series [3] (50 μM, 4 hours, FIG. 6C) is recorded as “higher”. In addition, in series [3] (EPA 50 μM added, 4 hours of culture, FIG. 6A), the “production of 8-HEPE in cell extract” value is given as “Production of 8-HEPE was observed”. In series [3] (PK LOX1 expressing Sf9 cells), the “activity compared with specific activity of lipoxygenases known in the art” value is on record as “markedly stronger than the specific activity of lipoxygenases known in the art”. For the same molecule, the “position specificity of oxidation of EPA” value in series [3] (only one peak of m/z=317.22, retention time and MS/MS match 8-HEPE standard, FIG. 6A, 6B) was “catalyzed position 8 specific oxidation of EPA”. Besides, in series [3] (printed as 'up to about', 50 μM substrate, 4 hours of culture, FIG. 6C), the “specific activity of lipoxygenase (8-HEPE/PK LOX1 expressing Sf9 cell protein)” value is reported as “about 2.5 μg/mg”. In addition, the “8-HETE content after adding an arachidonic acid, compared to extract of EGFP expressing Sf9 insect cells (control)” value in series [4] is recorded as “higher”. Further, the “10-HDoHE content after adding a docosahexaenoic acid, compared to extract of EGFP expressing Sf9 insect cells (control)” value in series [5] is given as “higher”.
